Source: patent US20070065878A1
Several values for one entry are separate records, joined by “and”; a condition that tells them apart may be missing. Equal entries are not always repeated.

How the values were obtained:
[1] = system: T1, PVNVV (MMP substrate, 5X library)
T1 sequence: PVNVV

[2] = system: T2, VPLNM (MMP substrate, 5X library)
T2 sequence: VPLNM

[3] = system: T3, PVPMV (MMP substrate, 5X library)
T3 sequence: PVPMV

[4] = system: T4, PVAMR (MMP substrate, 5X library)
T4 sequence: PVAMR

[5] = system: T5, VPVVM (MMP substrate, 5X library)
T5 sequence: VPVVM

[6] = system: T6, PMAVT (MMP substrate, 5X library)
T6 sequence: PMAVT

[7] = system: T7, VPVNM (MMP substrate, 5X library)
T7 sequence: VPVNM

[8] = system: T8, TPLAL (MMP substrate, 5X library)
T8 sequence: TPLAL

[9] = system: T9, MPVVL (MMP substrate, 5X library)
T9 sequence: MPVVL

[10] = system: T10, VPMVV (MMP substrate, 5X library)
T10 sequence: VPMVV

[11] = system: T11, PMAVI (MMP substrate, 5X library)
T11 sequence: PMAVI

[12] = system: T12, MPLVM (MMP substrate, 5X library)
T12 sequence: MPLVM

EP 4.1 = system: T13, EP 4.1
T13 sequence: SVDYRFLGS

[13] = system: T14, negative control displaying the sequence GGQSGQ
T14 sequence: GGQSGQ

EP 4.4 = system: T15, EP 4.4
T15 sequence: SEYDRQLGS

EP 4.10 = system: T16, EP 4.10
T16 sequence: GSSERAAAG

[14] = system: T17, Dabcyl-SGDRMW(E-Edans)-amide
T17 sequence: SGDRMW

EP 4.6 = system: T18, EP 4.6
T18 sequence: SSGERMMGG

EP 4.3 = system: T19, EP 4.3
T19 sequence: SSGDRMWGG

[15] = system: T20, CyPet-YPet substrate with recognition sequence SGDRMW (EP4.3)
T20 sequence: SGDRMWHHHHHH

EP 2.2 = system: T21, EP 2.2
T21 sequence: AAVERWGGS

EP 4.8 = system: T22, EP 4.8
T22 sequence: VRDYRMGGQ

EP 4.2 = system: T23, EP 4.2
T23 sequence: MHGERMGGS

EP 4.9 = system: T24, EP 4.9
T24 sequence: SVLDRWMGG

EP 2.5 = system: T25, EP 2.5
T25 sequence: MSGERMGGS

EP 3.6 = system: T26, EP 3.6
T26 sequence: GSSDRARVW

[16] = system: T27, Canonical (enteropeptidase substrate)
T27 sequence: DDDDKGGQS

EP 4.7 = system: T28, EP 4.7
T28 sequence: GSDDRRAGG

[17] = target: T29, Canonical (caspase-3 substrate)
T29 chain: QDEVDGGQS
Wherever % Conversion is given: test concentration or dose not given here.

For matrix metalloprotease-1, which % Conversion (fraction (head says % Conversion)) [1] is on record?
The % Conversion (fraction (head says % Conversion)) was 0.789.

And the % Conversion (fraction (head says % Conversion)) [2]?
Its % Conversion (fraction (head says % Conversion)) is 0.844 and 0.61.

What about the % Conversion (fraction (head says % Conversion)) [3] of the same molecule?
Its % Conversion (fraction (head says % Conversion)) is 0.496.

What about the % Conversion (fraction (head says % Conversion)) [4] of the same molecule?
Its % Conversion (fraction (head says % Conversion)) is 0.729.

What about the % Conversion (fraction (head says % Conversion)) [5] of the same molecule?
Its % Conversion (fraction (head says % Conversion)) is 0.366.

What about the % Conversion (fraction (head says % Conversion)) [6] of the same molecule?
Its % Conversion (fraction (head says % Conversion)) is 0.504.

What about the % Conversion (fraction (head says % Conversion)) [7] of the same molecule?
The % Conversion (fraction (head says % Conversion)) was 0.76.

What about the % Conversion (fraction (head says % Conversion)) [8] of the same molecule?
The % Conversion (fraction (head says % Conversion)) was 0.417.

What about the % Conversion (fraction (head says % Conversion)) [9] of the same molecule?
Its % Conversion (fraction (head says % Conversion)) is 0.428.

What about the % Conversion (fraction (head says % Conversion)) [10] of the same molecule?
The % Conversion (fraction (head says % Conversion)) was 0.814 and 0.443.

And the % Conversion (fraction (head says % Conversion)) [11]?
Its % Conversion (fraction (head says % Conversion)) is 0.699.

And the % Conversion (fraction (head says % Conversion)) [12]?
The % Conversion (fraction (head says % Conversion)) was 0.659.

What does the source list for “catalytic subunit light chain of enteropeptidase”?
Conversion (fraction converted) (EP 4.1): 0.84; change in fluorescence (SA-PE label) after incubation with enteropeptidase [13]: exhibited minimal change in fluorescence; Conversion (fraction converted) (EP 4.4): 0.71; Conversion (fraction converted) (EP 4.10): 0.78; kcat/KM of the synthetic fluorogenic peptide, relative to DDDDK [14]: > 5 fold; Conversion (fraction converted) (EP 4.6): 0.93; Conversion (fraction converted) (EP 4.3): 0.97; cleavage rate of the CyPet-YPet fusion by fluorimetry, relative to DDDDK [15]: cleaved at a rate 17-fold faster than DDDDK; Conversion (fraction converted) (EP 2.2): 0.69; Conversion (fraction converted) (EP 4.8): 0.87; Conversion (fraction converted) (EP 4.2): 0.84; Conversion (fraction converted) (EP 4.9): 0.72; Conversion (fraction converted) (EP 2.5): 0.84; Conversion (fraction converted) (EP 3.6): 0.86; Conversion (fraction converted) [16]: 0.15; decrease in mean fluorescence intensity (SA-PE label) after incubation with enteropeptidase [16]: 20 fold; Conversion (fraction converted) (EP 4.7): 0.91

B1: caspase-3 (protein)
chain: MENTENSVDSKSIKNLEPKIIHGSESMDSGISLDNSYKMDYPEMGLCIIINNKNFHKSTGMTSRSGTDVDAANLRETFRNLKYEVRNKNDLTREEIVELMRDVSKEDHSKRSSFVCVLLSHGEEGIIFGTNGPVDLKKITNFFRGDRCRSLTGKPKLFIIQACRGTELDCGIETDSGVDDDMACHKIPVEADFLYAYSTAPGYYSWRNSKDGSWFIQSLCAMLKQYADKLEFMHILTRVNRKVATEFESFSFDATFHAKKQIPCIVSMLTKELYFYH
B1 was tested. Which Conversion (fraction converted) [17] did it give?
Its Conversion (fraction converted) is 0.95.
